{
  "source": "patent US8822645B2",
  "about": "“Prostaglandin E2 dual variable domain immunoglobulins and uses thereof” (AbbVie Inc., priority 2008, dated 2014)",
  "molecules": {"B1": {"name": "DVD163: DVD-Ig construct listed in Table 4 (antibody)", "VH": "EVQLVQSGAEVKKPGASVKVSCKASGYTFTKYWLGWVRQAPGQGLEWMGDIYPGYDYTHYNEKFKDRVTLTTDTSTSTAYMELRSLRSDDTAVYYCARSDGSSTYWGQGTLVTVSSASTKGPQVQLQESGPGLVKPSETLSLTCTVSGFSLIGYDLNWIRQPPGKGLEWIGIIWGDGTTDYNSAVKSRVTISKDTSKNQFSLKLSSVTAADTAVYYCARGGYWYATSYYFDYWGQGTLVTVSS", "VL": "DVLMTQTPLSLPVTPGEPASISCTSSQNIVHSNGNTYLEWYLQKPGQSPQLLIYKVSNRFSGVPDRFSGSGSGTDFTLKISRVEAEDVGVYYCFQVSHVPYTFGGGTKVEIKRTVAAPDIQMTQSPSSLSASVGDRVTITCRASQSISNNLNWYQQKPGKAPKLLIYYTSRFHSGVPSRFSGSGSGTDFTFTISSLQPEDIATYYCQQEHTLPYTFGQGTKLEIKR"}, "B2": {"name": "2B5-8.0: murine anti-PGE2 antibody clone, VH SEQ ID 82, VL SEQ ID 83 (antibody, V domains shown)", "VH": "QVQLQQSGPELVRPGSSVKISCKASGYTFTKYWLGWVKQRPGHGLEWIGDIYPGYDYTHYNEKFKDKATLTVDTSSSTAYMQLSSLTSEDSAIYYCARSDGSSTYWGQGTLVTVSA", "VL": "DVLMTQTPLSLPVSLGDQASISCTSSQNIVHSNGNTYLEWYLQRPGQSPKLLIYKVSNRFSGVPDRFSGSGSGTVFTLKISRVEAEDLGVYYCFQVSHVPYTFGGGTKLEIKR"}, "B3": {"name": "Hu2B5.7: humanized anti-PGE2 antibody, VH SEQ ID 74, VL SEQ ID 75 (antibody, V domains shown)", "VH": "EVQLVQSGAEVKKPGASVKVSCKASGYTFTKYWLGWVRQAPGQGLEWMGDIYPGYDYTHYNEKFKDRVTLTTDTSTSTAYMELRSLRSDDTAVYYCARSDGSSTYWGQGTLVTVSS", "VL": "DVLMTQTPLSLPVTPGEPASISCTSSQNIVHSNGNTYLEWYLQKPGQSPQLLIYKVSNRFSGVPDRFSGSGSGTDFTLKISRVEAEDVGVYYCFQVSHVPYTFGGGTKVEIKR"}},
  "key": {"desired target antigen": {"tested_on": "desired target antigen", "experiment": "Direct Bind ELISA of parent antibodies and DVD-Ig constructs", "type": "binding", "details": "C-terminal variable domain NGF, read-out: Direct Bind ELISA C-terminal VD EC50", "procedure": "Enzyme Linked Immunosorbent Assays to screen for antibodies that bind a desired target antigen were performed as follows. […] Plates were washed four times with PBS containing 0.02% Tween 20. Plates were blocked by the addition of 300 μL/well blocking solution (non-fat dry milk powder, various retail suppliers, diluted to 2% in PBS) for ½ hour at room temperature. Plates were washed four times after blocking with PBS containing 0.02% Tween 20.\nWells were washed four times with PBS containing 0.02% Tween 20.\nOne hundred microliters of antibody or DVD-Ig preparations diluted in blocking solution as described above was added to the desired target antigen plate or desired target antigen/FC fusion plate or the anti-polyHistidine antibody/His tagged desired target antigen plate prepared as described above and incubated for 1 hour at room temperature.\nPlates were washed 4 times with PBS containing 0.02% Tween 20.\nOne hundred microliters of enhanced TMB solution (Neogen Corp. #308177, K Blue, Lexington, Ky.) was added to each well and incubated for 10 minutes at room temperature. The reaction was stopped by the addition of 50 μL 1N sulphuric acid. Plates were read spectrophotometrically at a wavelength of 450 nm."}, "[1]": {"experiment": "PGE2-biotinamide ELISA (PGE2 binding)", "details": "PGE2 VD in N-terminal position, read-out: Direct Bind ELISA N-terminal VD EC50", "method_in_brief": "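Antibody or DVD-Ig (1 µg/ml) captured on anti-host Fc IgG-coated plates for 1 h at room temperature, then titrated with PGE2-biotinamide serially diluted from 30 nM for 1 h. Binding detected with streptavidin-polyHRP and TMB, absorbance read at 450 nm; EC50 from the titration curve.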"}, "[2]": {"tested_on": "PGE2 / human EP4 receptor in HEK293 Gα16 cells", "experiment": "EP4 bioassay (Ca++ flux, neutralization of PGE2)", "type": "cell-based", "method_in_brief": "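Ca++ flux (FLIPR) in HEK293 Gα16 cells stably expressing human EP4, loaded with Ca++-sensitive dye for 90 min. PGE2, alone or pre-incubated with anti-PGE2 antibody, DVD-Ig or isotype control, was added in FLIPR buffer (HBSS, 20 mM HEPES, 0.1% BSA, 2.5 mM probenecid). EC50 derived from PGE2 dose-response.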"}, "[3]": {"tested_on": "C57.BL/6 mice, carrageenan-induced footpad edema", "experiment": "Carrageenan-induced footpad edema model", "type": "in vivo, mouse", "details": "10 mg/kg", "procedure": "Carrageenan-Induced Footpad Edema is an acute rodent model of innate immune function. Intradermal (ID) injection of an inflammatory agent causes a rapid influx of neutrophils and fluid edema, which peaks at approximately 4 hours, followed by an influx of macrophages and monocytes, which peaks at approximately 48 hours. C57.BL/6 mice (8-10-week-old, Jackson Laboratories, Bar Harbor, Me.) were injected ID in the rear footpad with 30 μL of either PBS (left) or λ-carrageenen (Sigma Aldrich, St. Louis, Mo.) in PBS (right) at a concentration of 5.0 mg/mL (150 μg/mouse). […] Significant difference for paw thickness was determined by comparing mean paw swelling for each treatment group to vehicle in a Student's two-tailed t-test.\nThe endpoint measured was the difference in paw swelling (edema) between right and left paws 4 hours after treatment."}, "[4]": {"experiment": "3H-PGE2 ELISA (PGE2 binding affinity)", "procedure": "Alternatively, prostaglandin binding screen for antibodies or DVD-Ig molecules can be determined using a ^3H-PGE2 ELISA. Plates were coated at 50 μl/well with 5 μg/ml of goat anti-human IgG (Fc) (Thermo Scientific #31170, Hudson, N.H.) or goat anti-mouse IgG (Fc) (Thermo Scientific #31125, Hudson, N.H.) in PBS and incubated overnight at 4° C. The following day plates were flicked and blotted dry. Plates were then blocked with 200 μL/well of Superblock (Thermo Scientific #37515, Hudson, N.H.), for 1 hour at room temperature. Plates were flicked and blotted dry. Monoclonal antibodies were diluted to 0.04 μg/ml in PBST (Abbott Bioresearch Center, Worcester, Mass.)/10% Superblock and 50 uL of each antibody or DVD-Ig was added to each well of the pre-blocked ELISA plate at 2 ng/well and incubated for 1 hour at room temperature. Wells were washed 3 times with PBS+0.1% Tween-20. A serial 3 fold titration of ^3H-PGE2 (Perkin Elmer #NET-428, Waltham, Mass.) was prepared in PBST+10% Superblock. Fifty microliters of the ^3H-PGE2 solution was then added to each well of the plate and incubated for 1 hour at room temperature. Wells were washed 6 times with PBST+10% Superblock and 50 μL of scintillation fluid (Perkin Elmer #6013621, Waltham, Mass.) added to each well. Plates were read using the TopCount reader (Perkin Elmer, Waltham, Mass.) with a 5 minutes count delay. EC50 number was determined using GraphPad Prism 5 (GraphPad Software, La Jolla, Calif.)."}, "[5]": {"tested_on": "human TNFα transgenic B6.Cg(SJL)-Tg(TNF) N21+ mice", "experiment": "Human TNFα transgenic induced arthritis model", "type": "in vivo, mouse", "details": "PGE2 blockade", "procedure": "Human TNFα transgenic B6.Cg(SJL)-Tg(TNF) N21+ mice (40 male and 40 females) (Taconic, Hudson, N.Y.) at 4 weeks age were divided into 10 groups of 8 mice (4 male and 4 females/group). Each week, starting from week 5 until week 12 of age the morphology of the rear ankle joints of the mice were evaluated and scored for signs and symptoms of arthritis. Arthritic scores were assigned as follows. • 0=no arthritis (normal appearance and flexion) • 1=mild arthritis (joint distortion) • 2=moderate arthritis (swelling, joint deformation); and • 3=severe arthritis (ankylosis detected on flexion and severely impaired movement)\nAnimals were randomized to achieve approximately similar mean arthritic score (MAS) for all groups at week 9 at first signs of symptoms. Animals were then treated i.p. twice a week starting from week 10 of age until week 12 of age. Mice in group 1 served as untreated control were administered PBS."}, "Dynamic light scattering": {"experiment": "Dynamic light scattering", "type": "physicochemical", "details": "2 mg/mL in PBS", "procedure": "Samples were centrifuged at 10,000 RPM for 10 minutes before measured on DynaPro-801 Dynamic light scattering system."}},
  "data": [
    {"molecule": "B1", "values": [
      {"measurement": "EC50", "setting": "desired target antigen", "result": "> 10000", "unit": "nM"},
      {"measurement": "EC50", "setting": "[1]", "result": 0.71, "unit": "nM"},
      {"measurement": "EC50", "setting": "[2]; PGE2 VD in N-terminal position, EP4 bioassay, Ca++ flux, read-out: N-terminal VD PGE2 Neutralization EC50", "result": 0.245, "unit": "nM"}
    ]},
    {"molecule": "B2", "values": [
      {"measurement": "maximal inhibition of paw swelling", "setting": "[3]; IP 18 hours prior to carrageenan, 4 hours", "result": "40-50%"},
      {"measurement": "% Inhibition", "setting": "[3]; i.p.", "result": "38 ± 4.6", "unit": "%"},
      {"measurement": "Δ Paw Swelling", "setting": "[3]; i.p., 4 hours post carrageenan", "result": "0.529 ± 0.04", "unit": "mm"},
      {"measurement": "Kd", "setting": "[4]", "result": 0.334, "unit": "nM"},
      {"measurement": "effect on disease progression", "setting": "[5]", "result": "no significant effect"},
      {"measurement": "IC50", "setting": "[2]; EP4 assay", "result": 0.02, "unit": "nM"}
    ]},
    {"molecule": "B3", "values": [
      {"measurement": "hydrodynamic radius", "setting": "Dynamic light scattering", "result": 5.36, "unit": "nm"}
    ]}
  ]
}
